Laboratory results taken from patent US20080085279A1.
Where two headings read alike, the source gives them in different places.

Tests used:
[1] = target: Recombinant MDM2 (baculovirus-expressed, pBlueBacHis2:MDM2) (human) (UniProt Q00987); test: cell-based or functional assay
[2] = target: Recombinant MDM2 (baculovirus-expressed, pBlueBacHis2:MDM2) (human) (UniProt Q00987); test: cell-based or functional assay; remark: listed apart in the source

Recombinant MDM2 (baculovirus-expressed, pBlueBacHis2:MDM2) (human), sequence (Q00987 whole entry): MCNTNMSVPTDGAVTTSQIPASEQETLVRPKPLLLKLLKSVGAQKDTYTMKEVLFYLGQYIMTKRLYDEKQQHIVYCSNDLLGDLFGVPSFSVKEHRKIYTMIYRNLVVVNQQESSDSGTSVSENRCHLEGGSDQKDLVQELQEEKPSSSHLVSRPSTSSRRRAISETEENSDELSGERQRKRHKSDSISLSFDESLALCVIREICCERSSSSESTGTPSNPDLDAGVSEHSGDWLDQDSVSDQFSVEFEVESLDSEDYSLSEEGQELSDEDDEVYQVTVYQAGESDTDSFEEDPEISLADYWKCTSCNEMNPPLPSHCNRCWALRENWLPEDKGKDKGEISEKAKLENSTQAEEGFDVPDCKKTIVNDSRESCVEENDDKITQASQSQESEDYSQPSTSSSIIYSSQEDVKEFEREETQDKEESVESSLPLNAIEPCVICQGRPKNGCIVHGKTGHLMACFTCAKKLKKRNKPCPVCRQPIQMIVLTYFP

Substance: Recombinant hMTBP (bacterially expressed from pQE-hMTBP) (from UniProt Q96DY7 1-904)
- MDM2 auto-ubiquitination in vitro (molar ratio MTBP:MDM2) [1]: 10
- MDM2 auto-ubiquitination in vitro (molar ratio MTBP:MDM2) [2]: 3
